experiment: yeast display, Sf9 membrane polyspecificity reagent, FACS + sequencing; frameworks hold sequencing errors
In short: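 Galactose induction of a Saccharomyces cerevisiae BJ5465 synthetic nanobody display library ran 36–48 hours. The cells were then stained for 1 hour at 4 °C with 10% biotinylated, detergent-solubilized Sf9 membrane reagent, pulled down on streptavidin microbeads and FACS-sorted into low and high (top ~1%) gates on expression and reagent-binding fluorescence. Labels for polyreactivity follow the gate of origin.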

Sequence | polyreactivity (PSR sort gate)
QVQLVESGGGLVQAGGSLRLSCAASGFIFPAYAMGWYRPAPGKERELVAAISKSGGRTYYADSVKGRFTISRDNAKNTVYIQMKSLKPEYTAVYYCDARMYNYDTSSSFDYWGQGTQVTVSS | high polyreactivity
QVQLVESGGGLVQAGGSLRLSCAASGFTFNYNTMGWYRPAPGKERELVARISRSGGRTYYADSVKGRFTISRDNAKNTVYLQMNSLKPEDTAVYYCNTDYYGVRHRYDYWGQGTQVTVSS | high polyreactivity
QVQLVESAGGLVQAGGSLRLICAASGRIFYLNAMGWYRQAPGKESELVAAINTSCGSTYADSVKWRFTISRDNAKNTVYLQMNSLKPEDTAVYYCNAYLAEVLPLGKGRLYDYWGQGTQVTVSS | low polyreactivity
QVQLVESGGGLVQAGGSLRLSCAASGIIFGDNAMGWYRQAPGKERELVAAIDSGGSTYYADSVKGRFTISRDNAKNTVYLQMNSLKPEDTAVYYCNAVTAFGYSYGGWDYDQYNYWGQGTQVTVSS | low polyreactivity
QVQLVETCGGLDQAGVSLRLSCAASGIIFKTYAMGWYRQAPGKETEYVAPISVSGGGTYYADSVKGRFTISRDNAKNTVYLQMNSPKPEDTAVYYCAARSWYWRYYTLNPYDYWVQGTQVTVSS | high polyreactivity
QVQLVESGGGLVQAGGSLRLSCAASGSILIYNAMAWYRQAPGKEMQLVAGISRRGASTYYADSVKGRFTISRDMAKNTVYLPMNSLKPEDTAVYYCAALGKYIVAWSGDYWGQGTQVNVSS | low polyreactivity
QVQLVESGGGLVQAGGSLRLSCAASGITFYGYAMGWYRQAPGKERELVARISRGGRTYYADSVKGRFTISRDNAKNTVYLQMNSLKPEDTAVYYCAAGKYWYAGKYLYDYWGQGTQVTVSS | high polyreactivity
QVQPQESGGGPVQACGSLRLSCAASGNILDADILGWYRLVPAKERELVASITDGGSTNYAESVKGRFTISRDNAKNTVYLQMNSLKPEDTAVYYCARRHRVFPSRIGHDYWGQGSQVTVSS | low polyreactivity
HVQLVESGGGLVQAGGSLRLSCAASGRTFYIYAMGWYRKAPGKERELVAAITWSGGTTYYADSVKGRFTISRDNAKNPVYLQMTSLKPEDTAVYYCAADSYGFYLESYYWGQGTQVTVSS | low polyreactivity
QVQLVESGGGLVQAGGSLRLSCAASGRIFEKYAMGWYRQAPGKERELVAAISYSGGSTYYADSVKGRFTISRDNAKNTVYLQMNSLKPEDTAVYYCARYSRTQAYDYWGQGTQVTVSS | high polyreactivity
QFQLVESGGGLVQAGGSLRLSCAASGRTFAWNAMGWYRQAPGKERELVAAISYNGGRTYYADSVKGRFTISRDNAKNTVYFQMNSLKPEDTAVYYCAAQRYGYWGQGTQVTVSS | high polyreactivity
QVQLVESGGGLVQAGGSLRLSCAASGFTFSAYTMGWYRQAPGKESELVAAINWSGANTYYADSVKGRFTISRDNAKNTVYLQMNSLKPEDTAVYFCNAEDDYTYDRSFGGYKYDYWGQGTQVTVSS | low polyreactivity
QVQLVESGGGLVQAGGSLRLSCAASGFTFRAYAMGWSRQAPGKERELVAAISTGGGSTYYADSVKGRFTISRDNAKNTVYLQMNSLKPEDTAVYYCNALPQRRYYYWGQGTQVTVSS | high polyreactivity
QVQLVESGGGLVQAGGSLRLSCAASGLTFYTYAMGWYRQAPGKERELVAAITYSGGRTSYADSVKGRFTISRDNAKNTVYLQMNSLKPEDTAVYYCAARTLGRRLDYGYWGQGTQVTVSS | low polyreactivity
QVQLEESAGRLVQAGGSLRLSCAASGYTFGYYAMGWYRQAPGKERQLVAAISWRGARTNYADSVKGRFTISRDNAKNTVYLQMNSLKPEDTAVYYCAAGYYYGYPPRDYWGQGTQVTVSS | high polyreactivity
QVQLVESGGGLVQAGGSLRLSCAASGITFVKNAMGWYRQAPGKERELVARIRIGGSTSYADSVKGRFTISRDNAKNTVYLQMNSLKPEDPAVYYCARYAGRLSYRYEFWGQGTQVTLSS | high polyreactivity
QVQLVESGGGLVQAGGSLRLSCAASGRTFPVYAMGWYRQAPGKERELVATIRRRDGSTYADSVKGRFTISRDNAKNTVYLQMNSLKPEDTAVYYCNAAYRQATPWYYAWYDYWGQVTQVTVSS | high polyreactivity
QVQIVESGGGLVQAGGSLRLTCAASGFTFYKKAMGWYIQAPGKERELVAAITSSGGSTYYADSVKGRFTISRDNAKNTVYLQMNSLKPEDTAVYYCAAYPQAYIADYDYWGQGTQVTVSS | low polyreactivity
QVQLVESGGGLEQAGGRLRLSCAASGFTFDFYAMGWYRQAPGKERQLVAAISKNDGTTYYADSVKGRFTISRDNAKNTVYLQMNSLKPEDTAVYYCAAESGYPVYTYVSSGDYWGQGTQVTVSS | low polyreactivity
QVQLVESGGGLVQAGGSLRLSCAASGYTFYPYARGWYRQAPGKGRELVAVITSGDSTYYADSVKGRFTISRDNAKNTVYLQMNSLKPEDSAVYYCNTLGFDYYYYEYDYWVQGTQVTVSS | low polyreactivity
QVQLVESGGGLVQARGSLSLSCAATGSTSYINAMGWSSQAPWKERELVAAIRSGGSTKYADSVKGRFTISRDNAKNTVYLQMNSVLPEDSSVYYCAARNVYKTSGFRWVWNYDYWGQGTQVTVSS | high polyreactivity
QVQLVESGGGLVQAGGSLRLSCAASGRTFSWNTMGWYRQAPGKERELVAAITRVGTTYYADSVKGRFTISRDNAKNTVYLQMNSLKPEDTGVYYCNARKVRYPYRWYDYWGQGTQVTVSS | high polyreactivity

Sequence | polyreactivity (PSR sort gate)
QVQLVESGGGLVQAGGSLRLSCAASGLIFGWYAMGWYRQAPGKEREFVASIRYGGGSTYYADSVKGRFTISRDNAKKTVYLQMNSLKPEDTAVYYCAAELSVDKYDYWGQGTQETVSS | low polyreactivity
QVQLVESGGGLVQAGGSLRLSCAASGSIFYYNVMGWYRQAPGKETELVAAISQSGVRTYYADSVKGRFTISRDNAKNTVYLQMNSLKPEDTAVYYCAAKARRLYASSYDYWGQGTQVTVSS | high polyreactivity
QVQLVESGGGLVQAGGSLRLSCAASGRIFPGYAMGWYRQAPGKERELVAAISGSGVRTYYADSVKGRFTISRDNAKNTVYLQMNSLKPEDTAVYYCAADSKIRTKLDYWGQGTQVTVSS | low polyreactivity
QVQLVESGGGLVQEGGSLRLSCAASGSTFERNAMGWYRQAPGKERELVAAISAIGDSTYYADSVKGRFTISRDNAKNTVYLQMKSLNPEDTAVYYCAARYTRYHIGRGYYYWGQGTQVTVSS | high polyreactivity
QVQLVESGGGLVQAGGSLRLICAASGRIFFTYAMGWYIQAPGKERQLVASITGSGGSTYYADSVKGRFTISRDNAKNTVYLQMNSLKPEDTAVYYCAAALFRRQLYRKFYYWGQGTQVTVSS | low polyreactivity
QVQLVESGGGLVQAGGSLRLSCAASGSIFYYNTMGWYRQAPGKEREFVADISVIGGSTYYADSVKGRFTISRDNAKNTVYLQMNSLKPEDTAVYYCAARRYLRPHGLYGYWGQGSQVTVSS | low polyreactivity
QVQLVESGGGLVQAGGSLRLSSAASGRTFKYYGLGWYRQPPGKESQLVATISRSSSRTYYADSVKGRFTISRDNAKNTVYFKMNSLKPEDSAVYYCASLAPRSYDYDYWGKGTQVTVSS | high polyreactivity
QVQLVESGGGLVQAGGSLRLSCAASGLIFDSDAMGWYRQAPGKERELVAAITYTGGSTYYADSVKGRFTISRDSAKNTVYLQMNSLKPEDTAVYYCAARRQRDRYGYWGQGTKVTVSS | high polyreactivity
QVQLVESGGGLVQSGGSLRLSCAASGITFYVYTMGWYRQAPGKERELVAAINGSGGSTNYADSVKGRFTISRDNAKNTVHLQMNSLKPEDTAVYYCAADWSLRLYDYWGQGTQVTVSS | low polyreactivity
QGQLVESGGGLVQAGGSLRLSCAASGGIFLGNAMGWYRQAPGKERELVASITRGGDTSYADSVKGRFTISRDNAKNTVYLQMNCLKPEDTAVYYCNADYYSVVEYDYWGQGTQLTVSS | low polyreactivity
QVQLVESGGGLVQAGGSLRLTCAASGRTFRLYAMGWYRQAPGKERELVAAITRGGRTNYADSVKGRFTISRDNAKNTVYLQMNSLKPEDTAVYYCAARYVDRHTDYYYWGQGTQVTVSS | low polyreactivity
QVQLVESGGGLVQAGGSLRLSCAASGSTFVIYAMGWYRQAPGKERELVAAITISGGRTYYADSVKGRFTISRDKAKNTVYLQMNSLKPEDTAVYYCAATVVSTYPYGYGSSFVRDDYWGQGTQVTVSS | low polyreactivity
QVQLVESGGGLVQAGGSLRLSCAASGFTFIQYDMGWYRQAPGKERELVAAISSSGGSTYYADSVNGRFTISRDNAKNTFYLQMNSLKPEDTGVYYCAADPWVRLEYDYWGQGTQVTVSS | low polyreactivity
QVQLVESGGGLVLAGGRLRLSCAASGRTFFDYTMGWYSQAPGKEREFVARISSRTGRTYYADSVKGRFTISRDNEKNTDDLQMNSLKPDDTAVYYCNAVSQYSAFDYWGQGTQVTVSS | high polyreactivity
QVQLVESGGGLVQAGGSLRLSCAASGSTFGSYAMGWYRQAPGKERELVAAITTSGSSTYYADSVKGRFTISRDNAKNTVYLQMNSLKPEDTAVYYCNARPRRLSYSSYNYWGQGTQVTVSS | high polyreactivity
QVQLVESGGGLVQAGGSLRLSCAASGRTFVVNAKGWYRQAPGKEREFVAAISYRGDSTYYSDSVKGRFTISRDNAKNTVYLQMNSLKPEDTAVYYCAARVLGPGRRFYYWVQGTQVTVSS | high polyreactivity
QDQLVESWGGLVQAGGSLRLSCAASGFTFNKYAMGWYRQAPGKERELVAAISSSGGRTSYADSVKGRFTISRDNAKNTVYLQMNSLKPEDTAVYYCNKVSTADMGYWGHGTQVTVSS | high polyreactivity
QVQLVESGGGLVQAGGSLRLSCAASGFTFGWNAMGWYRQAPGKERELVAAITSGGITNYADSVKGRFTISRDNAKNTVYLQMNSLKPEDTAVYYCNARPTSRRSWYYWKGYDYWGQGTQVTVSS | high polyreactivity
QVQLVESGGGLVQAGGSLRLSCAASGSTFWIYAMGWYIQAPGTERELVAAITLRSGSTYYADSVKGRFTISRDNAKNTVYLQMISLKPEDTAVYYCATDSWGVDRPNYNYWGQGTQVTVSS | low polyreactivity
QVQLVESWGGLVQAGGSLPLRCAASGRTFVQYAMGWYRQAPGKERELVAAISLSGGRTYYADSVKGRFTISRDNAKNTVYLQMNSLKPEDTAVYYFSARDSSRYYWGQGTQVTVSS | high polyreactivity
QVQLVESGGGLVQAGGSLRLSCAASGSIFYINTMGWYRQAPGKEREMVATIRTSGGSTYADSVKGRFTISRDNAKNTVYLQMNSLKPEDTAVYYCAVRRYRSSSYGYYSWGQGTQVTVSS | high polyreactivity
